The record followed here is the Human Domainome abundance scans (Beltran et al. 2025).

The labels stand for the following.
B1: Activity-dependent neuroprotector homeobox protein, residues 770 to 810; numbered along this chain, Q9H2P0 (parent)
chain: FLTKYFNKQPYPTRREIEKLAASLWLWKSDIASHFSNKRKK

± gives the uncertainty stated by the source.

Variants of B1 are the subject of the data set. The experiment in a line: abundance fitness (aPCA) (normalised: wild type 0, dead -1); higher = more abundant; growth selection in yeast, the domain comes from the species named. The note with it: Homo sapiens.
Regarding FLTKYFNKQPYPTRREIEKLAASLWLWKSDIASHNSNKRKK, the abundance fitness was -0.205 ± 0.067.
In the case of FLTKYFNKQPYPTRREIEKLAASLQLWKSDIASHFSNKRKK, the abundance fitness came to 0.068 ± 0.08.
On to FLTKYFNKQPYPTRREIEKLAASLVLWKSDIASHFSNKRKK, for which the abundance fitness turned out to be 0.133 ± 0.055.
Regarding FLTKYFNKQPYPTRREIEKLAASLDLWKSDIASHFSNKRKK, the abundance fitness was -0.159 ± 0.12.
To FLTKYFNKQPYPTRREIEKLAASLFLWKSDIASHFSNKRKK belongs -0.168 ± 0.4; to FLTKYFNKQPYPTRREIEKLAASLRLWKSDIASHFSNKRKK, 0.254 ± 0.052.
The value for FLTQYFNKQPYPTRREIEKLAASLWLWKSDIASHFSNKRKK was -0.646 ± 0.29.
To FLTPYFNKQPYPTRREIEKLAASLWLWKSDIASHFSNKRKK belongs -0.904 ± 0.2; to FLTKYFNKQPYPTRREIEKLAASLWLWESDIASHFSNKRKK, -0.463 ± 0.085.
Take FLTKYFNKQPYPTRREIEKLAASLWLWDSDIASHFSNKRKK: the abundance fitness is -0.514 ± 0.12.
The value for FLTKYFNKQPYPTRREIEKLAASLWLWYSDIASHFSNKRKK was -0.443 ± 0.16; that for FLTKYFNKQPYPTRREIEKLAASLWLWGSDIASHFSNKRKK was 0.048 ± 0.057; that for FLTKYFNKQVYPTRREIEKLAASLWLWKSDIASHFSNKRKK was 0.062 ± 0.056.
Regarding FLTKYFNKQWYPTRREIEKLAASLWLWKSDIASHFSNKRKK, the abundance fitness stood at 0.059 ± 0.14.
Take FLTKYFNKQLYPTRREIEKLAASLWLWKSDIASHFSNKRKK: the abundance fitness is -0.15 ± 0.063.
Take FLTKYFNKQPYPTRREIEKLAASLWLWKSDIADHFSNKRKK: the abundance fitness is -0.267 ± 0.14.
For FLTKYFNKQPYPTRREIEKLAASLWLWKSDIAPHFSNKRKK, the abundance fitness is -0.01 ± 0.053.
To FLTKYFNKQPYPTRREIEKLAASLWLWKSDIAIHFSNKRKK belongs -0.149 ± 0.098; to FLTKYFNKQPYPTRREIEKLAASLWLWKSDIANHFSNKRKK, -0.284 ± 0.13.
On to FLTKYFNKQPYPTRREIEKLAASLWLWKSDIASHFSNKRMK, for which the abundance fitness was -0.069 ± 0.14.
In the case of FLTKYFNKQPYPTRREIEKLAASLWLWKSDIASHFSNKRRK, the abundance fitness was -0.156 ± 0.06.
Take FLTKYFNKQPYPTRREIEKLAASLWLWKSDIASHFSNKRTK: the abundance fitness stood at 0.009 ± 0.14.
FLTKYFNKQPYPTRREIWKLAASLWLWKSDIASHFSNKRKK: the abundance fitness was -0.356 ± 0.11.
For the variant FLTKYFNKQPYPTRREIKKLAASLWLWKSDIASHFSNKRKK, the abundance fitness amounted to 0.172 ± 0.062.
The value for FLTKYFNKQPYPTRREIQKLAASLWLWKSDIASHFSNKRKK was 0.061 ± 0.069.
Consider FLTKYFNKQPYPTRREIEKLAASLWLWKSDIASHFMNKRKK, for which the abundance fitness was -0.037 ± 0.088.
To FLTKYFNKQPYPTRREIEKLAASLWLWKSDIASHFQNKRKK belongs -0.085 ± 0.13; to FLTKYFNKQPYPTRREIEKAAASLWLWKSDIASHFSNKRKK, -0.038 ± 0.066; to FLTKYFNKQPYPTRREIEKYAASLWLWKSDIASHFSNKRKK, 0.064 ± 0.12.
The value for FLTKYFNKQPYPTRREIEKWAASLWLWKSDIASHFSNKRKK was 0.257 ± 0.085; that for FLTKYFNKQPYPTRREIEKDAASLWLWKSDIASHFSNKRKK was -0.322 ± 0.11.
To FLTKYFNKQPYSTRREIEKLAASLWLWKSDIASHFSNKRKK belongs -0.102 ± 0.061; to FLTKYFNKQPYPTRREIEILAASLWLWKSDIASHFSNKRKK, -0.686 ± 0.18; to FLTKYFNKQPYPTRREIEYLAASLWLWKSDIASHFSNKRKK, -0.764 ± 0.12.
Consider FLTKYFNKQPYPTRREIENLAASLWLWKSDIASHFSNKRKK, for which the abundance fitness was -0.144 ± 0.092.
Turning to FLTKYHNKQPYPTRREIEKLAASLWLWKSDIASHFSNKRKK, the abundance fitness is -0.794 ± 0.089.
The value for FLTKYFEKQPYPTRREIEKLAASLWLWKSDIASHFSNKRKK was -0.058 ± 0.14; that for FSTKYFNKQPYPTRREIEKLAASLWLWKSDIASHFSNKRKK was -0.88 ± 0.091.
The value for FCTKYFNKQPYPTRREIEKLAASLWLWKSDIASHFSNKRKK was -0.571 ± 0.077.
Regarding FDTKYFNKQPYPTRREIEKLAASLWLWKSDIASHFSNKRKK, the abundance fitness was -0.822 ± 0.12.
For the variant FFTKYFNKQPYPTRREIEKLAASLWLWKSDIASHFSNKRKK, the abundance fitness amounted to 0.098 ± 0.071.
As to FNTKYFNKQPYPTRREIEKLAASLWLWKSDIASHFSNKRKK, the abundance fitness was -0.555 ± 0.27.
To FLTKPFNKQPYPTRREIEKLAASLWLWKSDIASHFSNKRKK belongs -0.526 ± 0.23; to FLTKIFNKQPYPTRREIEKLAASLWLWKSDIASHFSNKRKK, -0.094 ± 0.098.
The value for FLTKYFNKQPYPTRREIEKLAASLWLWKSDIASHFSNHRKK was -0.112 ± 0.065; that for FLTKYFNKQPYPTRREIEKLAASLWLWKSDIASHFSNARKK was -0.167 ± 0.05.
The value for FLTKYFNKQPYPTRREIEKLAASLWLWKSDIASHFSNVRKK was -0.119 ± 0.047; that for FLTKYFNKQPYPTRREIEKLAASLWLWKSDIASHFSNGRKK was -0.09 ± 0.048.
For FLTKYFNKQPYPTRWEIEKLAASLWLWKSDIASHFSNKRKK, the abundance fitness was -0.326 ± 0.12.
FLTKYFNKEPYPTRREIEKLAASLWLWKSDIASHFSNKRKK: the abundance fitness is -0.075 ± 0.11.
With FLTKYFNKPPYPTRREIEKLAASLWLWKSDIASHFSNKRKK, the abundance fitness is -0.698 ± 0.069.
The value for GLTKYFNKQPYPTRREIEKLAASLWLWKSDIASHFSNKRKK was -0.574 ± 0.2; that for PLTKYFNKQPYPTRREIEKLAASLWLWKSDIASHFSNKRKK was -0.375 ± 0.29.
The value for NLTKYFNKQPYPTRREIEKLAASLWLWKSDIASHFSNKRKK was -0.142 ± 0.32; that for FLTKYFNKQPYPTRRRIEKLAASLWLWKSDIASHFSNKRKK was 0.054 ± 0.051; that for FLTKYFNKQPYPTRRFIEKLAASLWLWKSDIASHFSNKRKK was 0.304 ± 0.2.
The value for FLTKYFNKQPYPTRRLIEKLAASLWLWKSDIASHFSNKRKK was -0.194 ± 0.06; that for FLTKYFNKQPYPTRRHIEKLAASLWLWKSDIASHFSNKRKK was -0.133 ± 0.086; that for FLTKYFNKQPYPTRRKIEKLAASLWLWKSDIASHFSNKRKK was 0.095 ± 0.13.
Regarding FLTKYFNKQPYPTRRMIEKLAASLWLWKSDIASHFSNKRKK, the abundance fitness is -0.04 ± 0.13.
To FLTKYFNKQPYPTRRCIEKLAASLWLWKSDIASHFSNKRKK belongs 0.082 ± 0.063.
